Laboratory results reported in the supplement of paper PMC7125110.
± gives the standard error. For some assays here: Fewer inactive variants are shown than the library holds.

B1: glmS ribozyme (parent)
chain: AUAAAAGCGCCAGAACUACAGAAAUGUAGUUGACGAGGAGGAGGUUUAUCGAAUUUUCGGCGGAUGCCUCCAAA

Assays:
Conditions in all cases: with glucosamine-6-phosphate
glucosamine-6-phosphate [1] = variants of: B1; experiment: self-cleavage kobs at 40 uM GlcN6P; higher = faster cleavage; RNA array
Procedure, shortened: (§1)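 Tiles bearing barcoded ribozyme variants, transcribed in situ by E. coli RNA polymerase on sequenced MiSeq chips, were imaged over ~14 h at 37 °C using a hybridised Cy3 probe. Glucosamine-6-phosphate was supplied at 40 μM to 10 mM in HEPES/KCl/Mg(OAc)2 buffer. kobs came from one- or two-exponential decay fits to normalised per-tile medians, and weighted Michaelis–Menten fits then provided kcat and KM.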

glucosamine-6-phosphate [2] = variants of: B1; experiment: self-cleavage kobs at 2500 uM GlcN6P; higher = faster cleavage; RNA array
Procedure, shortened: as §1

glucosamine-6-phosphate [3] = variants of: B1; experiment: self-cleavage kobs at 10000 uM GlcN6P; higher = faster cleavage; RNA array
Procedure, shortened: as §1

glucosamine-6-phosphate [4] = variants of: B1; experiment: kcat; higher = faster cleavage; RNA array
Procedure, shortened: as §1

glucosamine-6-phosphate [5] = variants of: B1; experiment: self-cleavage kobs at 640 uM GlcN6P; higher = faster cleavage; RNA array
Procedure, shortened: as §1

glucosamine-6-phosphate [6] = variants of: B1; experiment: KM; higher = weaker cofactor use; RNA array
Procedure, shortened: as §1

glucosamine-6-phosphate [7] = variants of: B1; experiment: self-cleavage kobs at 160 uM GlcN6P; higher = faster cleavage; RNA array
Procedure, shortened: as §1

Variant	self-cleavage kobs at 40 uM GlcN6P (glucosamine-6-phosphate [1])	self-cleavage kobs at 2500 uM GlcN6P (glucosamine-6-phosphate [2])	self-cleavage kobs at 10000 uM GlcN6P (glucosamine-6-phosphate [3])	kcat (glucosamine-6-phosphate [4])	self-cleavage kobs at 640 uM GlcN6P (glucosamine-6-phosphate [5])	KM (glucosamine-6-phosphate [6])	self-cleavage kobs at 160 uM GlcN6P (glucosamine-6-phosphate [7])
A6C G9U U47G	< 1e-05 s⁻¹	< 1e-05 s⁻¹	< 1e-05 s⁻¹				
C58U C70G		2.22e-05 ± 1e-05 s⁻¹		1.93e-05 ± 3.5e-06 s⁻¹	2.38e-05 ± 9.2e-06 s⁻¹		
G66C C68U		0.000132 ± 2.7e-05 s⁻¹	0.000173 ± 2.3e-05 s⁻¹	0.00021 ± 1.1e-05 s⁻¹	5.11e-05 ± 1e-05 s⁻¹	1890 ± 220 µM	
U57G C58U	< 1e-05 s⁻¹			2.34e-05 ± 1.1e-05 s⁻¹			< 1e-05 s⁻¹
A6G G35U U56A	< 1e-05 s⁻¹						
A6U A48G	< 1e-05 s⁻¹	< 1e-05 s⁻¹	< 1e-05 s⁻¹				< 1e-05 s⁻¹
U55G G60C				< 1e-05 s⁻¹			< 1e-05 s⁻¹
U57A G66A		6.97e-05 ± 2.3e-05 s⁻¹	0.00012 ± 3.2e-05 s⁻¹	0.000171 ± 2.8e-05 s⁻¹		4040 ± 1400 µM	
U69A C71G		4.01e-05 ± 9.2e-06 s⁻¹		3.77e-05 ± 9.7e-06 s⁻¹	5.27e-05 ± 1.5e-05 s⁻¹		
U65C C68G						418 ± 130 µM	
G62U C70G				1.57e-05 ± 2.7e-06 s⁻¹			
C67A C71G		8.16e-05 ± 8.2e-06 s⁻¹	6e-05 ± 6.9e-06 s⁻¹	7.2e-05 ± 7e-06 s⁻¹	6.96e-05 ± 6.6e-06 s⁻¹		5.48e-05 ± 8.6e-06 s⁻¹
C58A C70A		6.58e-05 ± 1.4e-05 s⁻¹		4.48e-05 ± 1.6e-05 s⁻¹	5.32e-05 ± 1.4e-05 s⁻¹		3.09e-05 ± 1.1e-05 s⁻¹
A6C G29C A53U	< 1e-05 s⁻¹						< 1e-05 s⁻¹
C16U U55G C68U	0.000134 ± 2.4e-05 s⁻¹	0.00118 ± 0.00028 s⁻¹	0.00354 ± 0.00087 s⁻¹		0.00106 ± 0.0003 s⁻¹	507 ± 230 µM	0.000342 ± 0.00016 s⁻¹
G66A C67U	0.000173 ± 2.6e-05 s⁻¹	0.0016 ± 0.0003 s⁻¹	0.00498 ± 0.00098 s⁻¹	0.00255 ± 0.00091 s⁻¹	0.00134 ± 0.0002 s⁻¹		0.000398 ± 6.5e-05 s⁻¹
G66A C67G	0.000102 ± 1.4e-05 s⁻¹	0.00281 ± 0.00066 s⁻¹	0.00412 ± 0.00067 s⁻¹	0.00418 ± 0.0021 s⁻¹	0.000703 ± 0.0001 s⁻¹		0.000414 ± 5.4e-05 s⁻¹
G44U U56C						4890 ± 1500 µM	
U55G G60U G63A G66C		< 1e-05 s⁻¹		1.16e-05 ± 1e-06 s⁻¹			
U65G C68A		5.3e-05 ± 1.2e-05 s⁻¹	6.04e-05 ± 9.2e-06 s⁻¹	6.34e-05 ± 1e-06 s⁻¹		501 ± 50 µM	

Variant	self-cleavage kobs at 40 uM GlcN6P (glucosamine-6-phosphate [1])	self-cleavage kobs at 2500 uM GlcN6P (glucosamine-6-phosphate [2])	self-cleavage kobs at 10000 uM GlcN6P (glucosamine-6-phosphate [3])	kcat (glucosamine-6-phosphate [4])	self-cleavage kobs at 640 uM GlcN6P (glucosamine-6-phosphate [5])	KM (glucosamine-6-phosphate [6])	self-cleavage kobs at 160 uM GlcN6P (glucosamine-6-phosphate [7])
U56A U57A		0.000155 ± 3.3e-05 s⁻¹	0.00025 ± 4.4e-05 s⁻¹	0.000351 ± 3.9e-05 s⁻¹	4.44e-05 ± 1.7e-05 s⁻¹	3720 ± 820 µM	
C68U	0.000113 ± 1.6e-06 s⁻¹	0.00371 ± 0.00012 s⁻¹		0.00795 ± 0.003 s⁻¹	0.0015 ± 6.4e-05 s⁻¹	2930 ± 1200 µM	0.000316 ± 1.2e-05 s⁻¹
U65C C67U		7.62e-05 ± 2.6e-05 s⁻¹	9.15e-05 ± 1e-05 s⁻¹	0.000111 ± 9.1e-06 s⁻¹		2040 ± 650 µM	
A6G C16G C67G	< 1e-05 s⁻¹						
C67G C70U		9.79e-05 ± 8.3e-06 s⁻¹	0.000137 ± 8.4e-06 s⁻¹	0.000163 ± 2.9e-06 s⁻¹	4.24e-05 ± 6e-06 s⁻¹	1750 ± 88 µM	
U55C C70G	< 1e-05 s⁻¹			< 1e-05 s⁻¹			
C61A A64G	< 1e-05 s⁻¹			< 1e-05 s⁻¹			
A64G U65C C70G				1.52e-05 ± 6.7e-06 s⁻¹			
A6G G60A G62C	< 1e-05 s⁻¹						
U69C C70U	5.3e-05 ± 1.3e-05 s⁻¹	0.000524 ± 7.1e-05 s⁻¹	0.000743 ± 0.00018 s⁻¹	0.000681 ± 0.00015 s⁻¹	0.000254 ± 3.7e-05 s⁻¹	854 ± 350 µM	0.000108 ± 2.4e-05 s⁻¹
U2G A33G	< 1e-05 s⁻¹		< 1e-05 s⁻¹				
U55C U65G	4.04e-05 ± 1.8e-05 s⁻¹	0.00177 ± 0.0003 s⁻¹	0.00288 ± 0.00054 s⁻¹	0.00367 ± 0.00064 s⁻¹	0.000908 ± 0.00016 s⁻¹	2540 ± 680 µM	0.000212 ± 5.2e-05 s⁻¹
A6C C16G C71A	< 1e-05 s⁻¹						
G63A U69G		5.94e-05 ± 2.5e-05 s⁻¹		6.54e-05 ± 2.8e-05 s⁻¹	0.000116 ± 3.3e-05 s⁻¹		8.37e-05 ± 2.7e-05 s⁻¹
G63A U69A				4.23e-05 ± 1.2e-05 s⁻¹			5.41e-05 ± 2e-05 s⁻¹
G63C U65G	< 1e-05 s⁻¹		< 1e-05 s⁻¹	< 1e-05 s⁻¹			< 1e-05 s⁻¹
A64G C70G	< 1e-05 s⁻¹		5.41e-05 ± 8.6e-06 s⁻¹	5.51e-05 ± 2.1e-06 s⁻¹	4.33e-05 ± 1.6e-05 s⁻¹	224 ± 79 µM	
C58U C71U		3.66e-05 ± 7.1e-06 s⁻¹	6.56e-05 ± 6e-06 s⁻¹	8.62e-05 ± 5e-06 s⁻¹		3200 ± 560 µM	
G38U A39G						2660 ± 1000 µM	
U57G C71U		1.65e-05 ± 8e-06 s⁻¹	4.47e-05 ± 6.6e-06 s⁻¹	6.07e-05 ± 3e-05 s⁻¹	3.26e-05 ± 1.2e-05 s⁻¹		
